Measured values from paper PMC4113996, “Prediction and characterization of enzymatic activities guided by sequence similarity and genome neighborhood networks” (eLife, 2014).

Assays:
Assay in all cases: purified protein
[1] = substrate: O=C(O)C1=NCCC1; conditions: 0.16 mM NADPH, 50 mM Tris-HCl pH 7.6, 25°C
[2] = substrate: O=C(O)[C@H]1NCC[C@@H]1O; type: biochemical, Agrobacterium fabrum; conditions: t3HypD (dehydration) reaction, 50 mM Na-phosphate pH 8.0, 1 mM DTT, 25°C
[3] = substrate: O=C(O)[C@H]1NCC[C@@H]1O; type: biochemical, Burkholderia ambifaria; conditions: t3HypD (dehydration) reaction, 50 mM Na-phosphate pH 8.0, 1 mM DTT, 25°C
[4] = substrate: O=C(O)[C@H]1NCC[C@@H]1O; type: biochemical, Gillisella ampelina; conditions: t3HypD (dehydration) reaction, 50 mM Na-phosphate pH 8.0, 1 mM DTT, 25°C
[5] = substrate: O=C(O)[C@@H]1C[C@@H](O)CN1; type: biochemical, Paracoccus denitrificans; conditions: 4HypE reaction (start from t4Hyp as in Figure 1), 50 mM Na-phosphate pH 8.0, 1 mM DTT, 25°C
[6] = substrate: O=C(O)[C@H]1NCC[C@@H]1O; conditions: t3HypD (dehydration) reaction, 50 mM Na-phosphate pH 8.0, 1 mM DTT, 25°C
[7] = substrate: O=C(O)[C@@H]1C[C@@H](O)CN1; type: biochemical, Roseibium aggregatum; conditions: 4HypE reaction (start from t4Hyp as in Figure 1), 50 mM Na-phosphate pH 8.0, 1 mM DTT, 25°C
[8] = substrate: O=C(O)[C@@H]1C[C@@H](O)CN1; type: biochemical, Streptosporangium roseum; conditions: 4HypE reaction (start from t4Hyp as in Figure 1), 50 mM Na-phosphate pH 8.0, 1 mM DTT, 25°C
[9] = substrate: O=C(O)[C@@H]1C[C@@H](O)CN1; type: biochemical, Shewanella loihica; conditions: 4HypE reaction (start from t4Hyp as in Figure 1), 50 mM Na-phosphate pH 8.0, 1 mM DTT, 25°C
[10] = substrate: O=C(O)[C@@H]1C[C@@H](O)CN1; type: biochemical, Agrobacterium fabrum; conditions: 4HypE reaction (start from t4Hyp as in Figure 1), 50 mM Na-phosphate pH 8.0, 1 mM DTT, 25°C

B1: RSP_0854 (Q3IZJ8) (Cereibacter sphaeroides 2.4.1) (protein)
chain: MSIEIIGPEAEAHLSWDGLTTALTQGHKLPRAEVADIFLYRGKDTVLSRAAWIDGLGQLVKTATIFPGNGAAGKPTVNGAVTLYSDRDGTLEALVDFHLVTKWKTAGDSLLAAKRLARRDSREILLVGAGNVARSMIEAYGSHFPDARFTVWNRSADKARAMEGPQVRATEDLEAAVRAADIICTATMSQEPVVKGEWLKPGTHLDLIGAYRPDMREVDDEALRRATVFVDSRKTTIGHIGEIQDPLDRGILTEADIRADYYDLASGLYARRSDEEITLAKNGGGAHLDLMTASYIAAMWRQR
- Km [1]: 0.43 ± 0.09 mM
- kcat [1]: 66 ± 4 s⁻¹

B2: Atu4684 (A9CH01) (Agrobacterium fabrum str. C58) (protein)
chain: MRSIKTVHVISAHAEGEVGDVIVGGVKPPPGETIWEQSRFIARDETLRNFVLNEPRGGVFRHVNLLVPPKHPDADAAFIIMEPEDTPPMSGSNSICVSTVLLDGGIVPMQEPETHMLLEAPGGLVKVRAECRNGKAERIFVQNLPSFAAKLDAELEVEGLGKLKVDTAYGGDSFVIVDAEAMGFSLKPEEAHEIARLGVRITNAANKALGFDHPENPDWRHFSFCLFAGKVERTAEGLRAGAAVAIQPGKVDRSPTGTALSARMAVLHARGEMKEGETLTAVSLIGSTFTGRILGTTTVGDRPAILPEISGRGWITGIHQHMLDPSDPWPEGYRLTDTWGAR
- Km [2]: 4.2 ± 0.8 mM
- kcat [2]: 27 ± 1 s⁻¹

B3: Bamb_3769 (Q0B950) (Burkholderia ambifaria AMMD) (protein)
chain: MKISRSLSTVEVHTGGEAFRIVTSGLPRLPGDTIVQRRAWLKENADEIRRALMFEPRGHADMYGGYLTEPVSPTADFGVIFLHNEGYSDHCGHGVIALSTAAVELGWVQRTVPETRVGIDAPCGFIEAFVQWDGEHAGPVRFVNVPSFIWRRDVSVDTPSFGTVTGDIAYGGAFYFYVDGAPFDLPVREAAVEKLIRFGAEVKAAANAKYPVVHPEIPEINHIYGTIIANAPRHPGSTQANCCVFADREVDRSPTGSGTGGRVAQLYQRGVLAAGDTLVNESIVGTVFKGRVLRETMVGDIPAVIPEVEGSAHICGFANWIVDERDPLTYGFLVR
- Km [3]: 13 ± 3 mM
- kcat [3]: 43 ± 4 s⁻¹

B4: Avi_7022 (B9K4G4) (Allorhizobium ampelinum S4) (protein)
chain: MRTNKVIHVIGVHAEGEVGDVIVGGVSPPPGDTLWEQSRFIASDETLRNFVLNEPRGGVFRHVNLLVPPKDPRAQMGFIIMEPADTPPMSGSNSICVSTAILDSGIISMQEPLTHMVLEAPGGVIEVTAECANGKAERINVLNVASFVTRLAAALEVEGLGTLTVDTAYGGDSFVIVDAIGLGFSLKPDEARELAELGMKITAAANEQLGFVHPCNADWNHISFCQMTTPITRENGILTGKSAVAIRPGKIDRSPTGTGCSARLAVMHARGEIGIGETYIGRSIIDSEFKCHIDSLTEIGGLSAIRPVISGRAWITGVSQLMLDPTDPWPSGYQLSDTWPAI
- Km [4]: 15 ± 3 mM
- kcat [4]: 4.3 ± 0.4 s⁻¹

B5: PFL_1416 (Q4KGT8) (Pseudomonas protegens Pf-5) (protein)
chain: MSEYITLSLDEVCALSYQVLTRHGLSDAHARAIAEVITQGQRDECHSHGVYRLLGCVRSVREGRIDPRAEPSLRHVSPGVLEVDAHYGYSLLGFHTGLPILAEKARSQGIAAMVIKRCFHFSALWPEVEAIADYGLVGMAMNPSHSWVAPAGGRQPVFGTNPLAFAWPRPGGQPFVFDFATSAIARGDIELHARQGKPIPEHWAIDADGQPTTDAKAALQGAMQTFGGHKGSALAAMIELLAGALIGDLTSAESMAFDGGVGATPCHGELVLAFDPRVFLGEGYEQGLERAEGLFAAIARQGARLPSQRRFAARARSLEHGVQIPRGLLEDIRGLL
- Km [1]: 1.1 ± 0.2 mM
- kcat [1]: 20 ± 0.8 s⁻¹

B6: Pden_1185 (A1B196) (Paracoccus denitrificans PD1222) (protein)
chain: MARKSSAPQFLSYGDATGRLSWRDAVEALRQGHTLPQAQIRDVFLGPPTGTMMSRSAWIEGLGYGAKTFTVFDGNAARGLPTVQGAMLVFDKDDGRLQAIVDSPLVTEFKTAADSVLGASLLARPDSRHLLIVGAGTVAASLVRAYTAVLPGIERVSVWARRPQQAQDLIEGLDGIEADLAAVSDLPAAVGQADIVSSATMARQPVILGAWVRPGTHVDLIGAFKADMREADDALMARAALFVDSRETTLGHIGELMLPIASGAITAESVLGDLYDLVRPGARRRQSEDEITVFKNGGGAHLDLMIASYIARVMAG
- Km [1]: 3.1 ± 0.7 mM
- kcat [1]: 260 ± 20 s⁻¹

B7: Pden_4859 (A1BBM5) (Paracoccus denitrificans PD1222) (protein)
chain: MTQYIFPCIDGHTCGNPVRLVAGGAPRLEGATMLEKRAHFLREFDWIRTGLMFEPRGHDMMSGAILYPPTRGDCDVAVLYIETSGCLPMCGHGTIGTITMGIENGLIVPRTPGRLSIETPAGKVDIEYRQEGRHVEEVRLTNVPGFLYAEGLTAEVEGLGEIVVDVAYGGNFYAIVEPQKNFRDMADHTAGELIGWSLTLRAALNQKYEFTHPEHPQINGLSHIQWTGAPTVPGAHARNAVFYGDKAIDRSPCGTGTSARMAQLAARGRLGVGDEFWHESIIGSIFKGRIEAAATVAGRDAIIPSIAGWARQTGLNTIFIDAERDPFAHGFVVK
- Km [5]: 25 ± 5 mM
- kcat [5]: 16 ± 2 s⁻¹

B8: SIAM614_28502 (A0NXQ9) (Roseibium aggregatum IAM 12614) (protein)
chain: MRSTKTIHVISCHAEGEVGDVIVGGVAPPPGETLWEQRSFIARDQTLRNFVLNEPRGGVFRHVNLLVPPRHPEADAAFIIMEPEDTPPMSGSNSICVSTVLLDGGIVPMIEPITEMVLEAPGGLVRVKAECRNGKAERIFVQNVTSFADKLSVPLDVEGIGTLTVDTAYGGDSFVVVDAEALGFAIVEDEAKDIARLGVRITNAANEQLGFSHPENPDWNHISFCAFCGPLSQTPTGLTGRSAVAIQPGKVDRSPTGTAVSARMALMAARGQMTIGDTFEAVSIIGSSFTGRIVSQQMAGDRPGIVPEISGRGWITGIHQHMLDPSDPWPGGYKLSDTWGA
- Km [6]: 7.8 ± 1 mM
- kcat [6]: 15 ± 0.9 s⁻¹

B9: SIAM614_28492 (A0NXQ7) (Roseibium aggregatum IAM 12614) (protein)
chain: MRVIDSHTAGEPTRVVLDGGPDLGSGTLAERAARLEAEHLDFCASVVLEPRGHDAIIGALLVPPSDPACAAGVIYFNNLQNLGMCGHATIGLGVTLAHLGRIRPGRHRFETPVGVVEIDLIDANTVSVVNIESYRLAKDVTVEVEGVGPVTGDVAWGGNWFFLVKNSPIALTGANIRPLTDLTLKIRTALEKAGVTGKDGAWIDHIELFGPAEDPAAQSRNFVLCPGGAYDRSPCGTGCSAKLACLAADGALAPGQDYLQESVIGSTYKISYQPGPGGGVIPTITGQAFVTSDATLIFNPADPYRSGIRL
- Km [7]: 3.2 ± 0.5 mM
- kcat [7]: 55 ± 3 s⁻¹

B10: SM_b20270 (Q92WR9) (Sinorhizobium meliloti 1021) (protein)
chain: MRSTKTIHVISAHAEGEVGDVIVGGVAPPPGDTIWEQSRWIAREQTLRNFVLNEPRGGVFRHVNLLVPPKHPDADAAFIIMEPEDTPPMSGSNSICVSTVLLDSGILPMKEPVTEITLEAPGGLVRVRAECRDGKAERIFVENLPSFAERLDAKLEVEGLGTLTVDTAYGGDSFVIVDAAAMGFALKPDEAHDIARLGVRITNAANAKLGFHHPENPDWRHFSFCLFAGPVERTAEGLRAGAAVAIQPGKVDRSPTGTALSARMAVLHARGQMGLSDRLTAVSLIGSTFSGRILGTTEVGGRPAVLPEISGRAWITGTHQHMLDPSDPWPEGYRLTDTWGAR
- Km [6]: 3.8 ± 0.4 mM
- kcat [6]: 7.9 ± 0.2 s⁻¹

B11: Sros_6004 (D2AV87) (Streptosporangium roseum DSM 43021) (protein)
chain: MRTKRVFHAVDSHTEGMPTRVITGGVGVIPGSTMAERREHFLAEMDHVRTLLMYEPRGHSAMSGAILQPPTRPDADYGVLYIEVSGCLPMCGHGTIGVATVLVETGMVEVVEPVTTIRLDTPAGLVVAEVRVEDGAATAVTITNVPSFSAGLDRTVKVPGIGEVTYDLAYGGNFYAILPIESVGLPFDRAHKQQILDAGLAIMDAINEQDEPVHPLDAGIRGCHHVQFTAPGSDARHSRHAMAIHPGWFDRSPCGTGTSARMAQLHARGELPLDTDFVNESFIGTRFVGRLVEETEVTDLPAVVPTITGRAWVTGTAQYFLDPRDPFPEGFLL
- Km [8]: 7.8 ± 1 mM
- kcat [8]: 14 ± 0.8 s⁻¹

B12: Shew_2363 (A3QFI1) (Shewanella loihica PV-4) (protein)
chain: MLKGTFFCVDAHTCGNPVRLVTSGHPDLKGRTMSEKRQDFLAQYDWIRKALMFEPRGHDMMSGAFLYPPCSDNADAAILFIETSGCLPMCGHGTIGTITAALESGLLTPKMPGQLTIDVPAGQIKVQYQQTGAKVDWVKIFNVPAYLAHKDVVLDIPGLGPLKIDVSYGGNYYAIVDPQANFPGLRHWSAGDILRWSPIVREVAHRELNCVHPDDPTVNGVSHVLWTGDTISEGSNGANAVFYGDKAIDRSPCGTGTSARLAQLYSRGELKVGDEYTHESIIGSQFVGRIEAATKVGAFDAIMPSIKGWARITGHNAITVDDNDPYAFGFQVV
- Km [9]: 12 ± 3 mM
- kcat [9]: 50 ± 6 s⁻¹

B13: Atu0398 (A9CKB4) (Agrobacterium fabrum str. C58) (protein)
chain: MRWKRTLQLLDVHCEGEIGRVVTGGAPKIPGNTVAEQLHWMNTDPQGEALRRFLTLEPRGTPMGSVDLLLPPKHPDAHAAFVILQPDQAHASSGSNSICATTALLESGMVEMQEPETVIILETAAGLVKATATCRDGRCEKVKLTMVPSFVHELDVSIDTPEWGRVTMDISYGGIFYALVDVRQIGLTIEKANAAKLVAAGMTLKDLVNREMTVVHPEIPAISGVAYVMFRDVDADGSIRTCTTMWPGRADRSPCGTGNSANLATLYARGKVKVGDEYKSRSIIGSEFDVGLSAVTEVAGRPAVIPTIAGRGFTFGLHQVGLDPFDPLGDGFAMTDVWGPEAGNI
- Km [10]: 4.6 ± 2 mM
- kcat [10]: 0.86 ± 0.1 s⁻¹
